One block for each substance: values may come before it. Ends that are not written are not given here. * marks the point of attachment. biotin C6 = biotin C6 moiety, O=C(CCCC[C@@H]1SC[C@@H]2NC(=O)N[C@@H]21)NCCCCCC(=O)*
Key:
[1] = tested on: Ca2+ and phospholipid dependent protein kinase (PKC); assay: Protein kinase activity of Ca2+ and phospholipid dependent protein kinase with biotinylated neurogranin(28-43), streptavidin-linked disk, 32P; type: biochemical
Procedure: The protein kinase activity of Ca^2+ and phospholipid dependent protein kinase activity (PKC) was determined in a similar manner to that of PKA described above, except that the biotinylated peptide substrate was a derivative of neurogranin; namely, biotinylated neurogranin(28-43) Chen, S-J, et al., 1993.
The peptide was modified by the addition of biotin containing moiety: *-Ala-Ala-Lys-Ile-Gln-Ala-Ser-Phe-Arg-Gly-His-Met-Ala-Arg-Lys-Lys (Promega Peptide B, SEQ. ID. 2, Mol.Wt. is 2139.6), and was used at a concentration of 100 μM. The enzyme (#V5261, Promega Corporation) was diluted 5× in 100 μg/ml of BSA.
The kinase activity of the […] was determined in a reaction volume of 50 μL consisting of 40 mM Tris. HCl, pH 7.4, 10 mM MgCl2, BSA at 100 μg/ml, and 100 μM of τ-^32P-ATP (sp.act. of 100 cpm/pmol). The activity was determined in the presence and absence of 100 μg/ml of phosphatidylserine, 10 μg/ml of diacylglycerol and 0.4 mM calcium chloride. Reaction was started with the addition of 5 μL of the enzyme and incubated at 25° C. After specified periods of time, reactions were terminated by the addition of 10 μL of terminating solution (see above). Twenty-five μL aliquots were aliquoted on disks and the disks were processed as described above for PKA.

[2] = target: T1, cAMP-dependent protein kinase (PKA) (Bos taurus, UniProt P00517); assay: Kinase activity of cAMP-dependent protein kinase with biotinylated peptide substrate, streptavidin-linked disk, 32P; type: biochemical; details: PKA 2 Kemptide units per reaction, 100 μM ATP, 37° C., FIG. 3
T1 construct: V5161 (general description)
Procedure: The kinase activity of cAMP-dependent protein kinase (PKA) was carried out in duplicates at each of the various peptide substrate concentrations, in a reaction volume (50 μL) containing 40 mM Tris HCl, pH 7.4, 20 mM MgCl2, 100 μM τ-^32P-ATP (sp.act.of 100-200 cpm/pmol), 100 μg/ml of bovine serum albumin (BSA), and the appropriate biotinylated peptide substrate: *-Leu-Arg-Arg-Ala-Ser-Leu-Gly (Promega Peptide A, SEQ. ID. 1, M.Wt of 998.4).
The reaction was started by addition of the appropriate amount of enzyme (Promega #V5221) to give 2 Kemptide units and incubated for 0, 5, and 10 minutes at 37° C. (one Kemptide unit is defined as the amount of enzyme required to catalyze the incorporation of 1 pmol of phosphate into Kemptide substrate in 1 minute). At specified periods of time at the appropriate temperature, the reaction was terminated with the addition of 10 μL of terminating solution as described above.
Twenty-five μL aliquots were withdrawn and spotted in a 12.5 mm (i.d.) streptavidin-linked disk (0.5 mg of streptavidin/disk) and placed in 2M NaCl-containing beaker. After one minute of gently swirling the beaker at room temperature, fresh NaCl was added. This washing procedure was repeated 5 more times at one minute each. […]
Enzyme activity was calculated by determining the radioactivity via liquid scintillation spectrometry. […]

[3] = tested on: T2, biotinylated Promega Peptide A (*-Leu-Arg-Arg-Ala-Ser-Leu-Gly)
T2 sequence: LRRASLG

[4] = tested on: T3, biotinylated neurogranin(28-43) (Promega Peptide B, *-Ala-Ala-Lys-Ile-Gln-Ala-Ser-Phe-Arg-Gly-His-Met-Ala-Arg-Lys-Lys)
T3 sequence: AAKIQASFRGHMARKK

substrate concentration at which enzyme activity reached a maximum ([1]; PKC, 25° C., FIG. 7): around 100 μM
PKC activity relative to activity assayed with the phosphocellulose paper method ([1]; biotinylated substrate/streptavidin matrix versus unmodified peptide/phosphocellulose paper): 6-7 fold
Substance: *-Ala-Ala-Lys-Ile-Gln-Ala-Ser-Phe-Arg-Gly-His-Met-Ala-Arg-Lys-Lys ({biotin C6}-AAKIQASFRGHMARKK) [Promega Peptide B, N-terminal Biotin C6 neurogranin-derived peptide substrate for PKC]

Km [2]: 33 µM
Vmax value [2]: 1.45 pmol/min
Substance: *-Leu-Arg-Arg-Ala-Ser-Leu-Gly ({biotin C6}-LRRASLG) [Promega Peptide A, N-terminal Biotin C6 peptide substrate for PKA]

Substance: cAMP-dependent protein kinase (PKA), purified enzyme (Promega #V5221)
Km (kinase activity, 32P incorporation into biotinylated peptide captured on streptavidin disks) [3]: a Km Value for the substrate of 33 µM

Substance: Ca2+ and phospholipid dependent protein kinase (PKC) (#V5261, Promega Corporation)
substrate concentration at which kinase activity reached a maximum [4]: the activity of the enzyme reached a maximum around 100 µM of modified substrate
